Assay results from paper PMC10811823.

Legend:
western blot = conditions: glycan changed form; control: control RAW264.7
[1] = Co-IP/western after MG132; conditions: glycan changed form; control: control RAW264.7
[2] = CHX chase, western blot (protein persistence); conditions: glycan changed form; control: control RAW264.7
[3] = Co-IP/western after MG132, HEK 293T; conditions: glycan lost; control: WT/LG

Protein	expression_or_secretion (western blot)	other: ubiquitination [1]	degradation_or_half_life [2]	other: ubiquitination [3]
Lgals3bp (galectin 3 binding protein): RAW/shM1 (MGAT3 silenced) (protein) parent chain: MALLWLLSVFLLVPGTQGTEDGDMRLVNGASANEGRVEIFYRGRWGTVCDNLWNLLDAHVVCRALGYENATQALGRAAFGPGKGPIMLDEVECTGTESSLASCRSLGWMVSRCGHEKDAGVVCSNDTTGLHILDLSGELSDALGQIFDSQQGCDLFIQVTGQGYEDLSLCAHTLILRTNPEAQALWQVVGSSVIMRVDAECMPVVRDFLRYFYSRRIEVSMSSVKCLHKLASAYGATELQDYCGRLFATLLPQDPTFHTPLDLYAYARATGDSMLEDLCVQFLAWNFEPLTQSESWSAVPTTLIQALLPKSELAVSSELDLLKAVDQWSTETIASHEDIERLVEQVRFPMMLPQELFELQFNLSLYQDHQALFQRKTMQALEFHTVPVEVLAKYKGLNLTEDTYKPRLYTSSTWSSLVMASTWRAQRYEYNRYNQLYTYGYGSVARYNSYQSFQTPQHPSFLFKDKQISWSATYLPTMQSCWNYGFSCTSNELPVLGLTTSSYSNPTIGYENRVLILCGGYSVVDVTSFEGSKAPIPTALDTNSSKTPSLFPCASGAFSSFRVVIRPFYLTNSTDMV	increases	decreases	increases	–
Lgals3bp (galectin 3 binding protein): RAW/MGAT3 (MGAT3 overexpressed) (protein) parent chain: MALLWLLSVFLLVPGTQGTEDGDMRLVNGASANEGRVEIFYRGRWGTVCDNLWNLLDAHVVCRALGYENATQALGRAAFGPGKGPIMLDEVECTGTESSLASCRSLGWMVSRCGHEKDAGVVCSNDTTGLHILDLSGELSDALGQIFDSQQGCDLFIQVTGQGYEDLSLCAHTLILRTNPEAQALWQVVGSSVIMRVDAECMPVVRDFLRYFYSRRIEVSMSSVKCLHKLASAYGATELQDYCGRLFATLLPQDPTFHTPLDLYAYARATGDSMLEDLCVQFLAWNFEPLTQSESWSAVPTTLIQALLPKSELAVSSELDLLKAVDQWSTETIASHEDIERLVEQVRFPMMLPQELFELQFNLSLYQDHQALFQRKTMQALEFHTVPVEVLAKYKGLNLTEDTYKPRLYTSSTWSSLVMASTWRAQRYEYNRYNQLYTYGYGSVARYNSYQSFQTPQHPSFLFKDKQISWSATYLPTMQSCWNYGFSCTSNELPVLGLTTSSYSNPTIGYENRVLILCGGYSVVDVTSFEGSKAPIPTALDTNSSKTPSLFPCASGAFSSFRVVIRPFYLTNSTDMV	–	–	decreases	–
Lgals3bp (galectin 3 binding protein): N69A/LG (protein) parent chain: MALLWLLSVFLLVPGTQGTEDGDMRLVNGASANEGRVEIFYRGRWGTVCDNLWNLLDAHVVCRALGYENATQALGRAAFGPGKGPIMLDEVECTGTESSLASCRSLGWMVSRCGHEKDAGVVCSNDTTGLHILDLSGELSDALGQIFDSQQGCDLFIQVTGQGYEDLSLCAHTLILRTNPEAQALWQVVGSSVIMRVDAECMPVVRDFLRYFYSRRIEVSMSSVKCLHKLASAYGATELQDYCGRLFATLLPQDPTFHTPLDLYAYARATGDSMLEDLCVQFLAWNFEPLTQSESWSAVPTTLIQALLPKSELAVSSELDLLKAVDQWSTETIASHEDIERLVEQVRFPMMLPQELFELQFNLSLYQDHQALFQRKTMQALEFHTVPVEVLAKYKGLNLTEDTYKPRLYTSSTWSSLVMASTWRAQRYEYNRYNQLYTYGYGSVARYNSYQSFQTPQHPSFLFKDKQISWSATYLPTMQSCWNYGFSCTSNELPVLGLTTSSYSNPTIGYENRVLILCGGYSVVDVTSFEGSKAPIPTALDTNSSKTPSLFPCASGAFSSFRVVIRPFYLTNSTDMV	–	–	–	decreases
